Measured values taken from article PMC9482650, “Quantitative fragmentomics allow affinity mapping of interactomes” (Nature Communications, 2022).

T1: RHPN1, Q8TCX5
T1 sequence (Q8TCX5 508-602, limits assumed, looked up): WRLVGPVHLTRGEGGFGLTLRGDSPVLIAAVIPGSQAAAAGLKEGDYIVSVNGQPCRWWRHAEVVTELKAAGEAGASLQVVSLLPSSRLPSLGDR

T2: GRIP1_4, Q9Y3R0
T2 sequence (Q9Y3R0 467-571, limits assumed, looked up): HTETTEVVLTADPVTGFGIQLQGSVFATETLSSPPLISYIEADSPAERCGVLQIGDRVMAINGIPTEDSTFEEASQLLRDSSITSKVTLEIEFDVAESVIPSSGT

T3: DLG3_1, Q92796
T3 sequence (Q92796 125-227, limits assumed, looked up): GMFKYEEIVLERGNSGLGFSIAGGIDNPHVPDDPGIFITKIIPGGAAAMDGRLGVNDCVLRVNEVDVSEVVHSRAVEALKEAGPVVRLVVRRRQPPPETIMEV

T4: GRIP1_2, Q9Y3R0
T4 sequence (Q9Y3R0 145-248, limits assumed, looked up): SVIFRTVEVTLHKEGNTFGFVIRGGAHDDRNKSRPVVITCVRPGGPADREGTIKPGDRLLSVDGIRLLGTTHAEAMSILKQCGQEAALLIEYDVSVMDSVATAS

T5: MPDZ_10, O75970
T5 sequence (O75970 1624-1722, limits assumed, looked up): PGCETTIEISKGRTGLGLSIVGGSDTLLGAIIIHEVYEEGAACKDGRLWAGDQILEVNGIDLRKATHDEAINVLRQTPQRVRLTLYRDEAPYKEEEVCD

T6: LIN7B, Q9HAP6
T6 sequence (Q9HAP6 88-185, limits assumed, looked up): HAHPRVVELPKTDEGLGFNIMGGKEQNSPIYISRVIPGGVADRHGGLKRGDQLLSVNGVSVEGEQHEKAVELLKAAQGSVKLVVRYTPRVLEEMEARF

T7: DLG3_2, Q92796
T7 sequence (Q92796 221-321, limits assumed, looked up): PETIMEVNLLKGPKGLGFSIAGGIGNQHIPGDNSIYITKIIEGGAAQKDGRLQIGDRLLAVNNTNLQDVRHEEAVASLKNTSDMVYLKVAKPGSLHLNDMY

T8: SYNJ2BP, P57105
T8 sequence (P57105 8-110, limits assumed, looked up): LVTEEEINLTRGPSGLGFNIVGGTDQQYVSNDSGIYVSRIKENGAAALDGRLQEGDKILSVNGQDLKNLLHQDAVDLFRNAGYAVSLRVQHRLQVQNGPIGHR

T9: PARD3B_1, Q8TEW8
T9 sequence (Q8TEW8 196-299, limits assumed, looked up): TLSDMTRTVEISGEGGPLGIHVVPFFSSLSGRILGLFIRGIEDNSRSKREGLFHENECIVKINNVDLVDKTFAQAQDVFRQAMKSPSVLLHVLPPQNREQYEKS

T10: HTRA3, P83110
T10 sequence (P83110 354-453, limits assumed, looked up): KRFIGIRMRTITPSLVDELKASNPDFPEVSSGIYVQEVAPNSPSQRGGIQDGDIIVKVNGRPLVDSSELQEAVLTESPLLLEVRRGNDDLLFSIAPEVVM

T11: PTPN13_1, Q12923
T11 sequence (Q12923 1088-1188, limits assumed, looked up): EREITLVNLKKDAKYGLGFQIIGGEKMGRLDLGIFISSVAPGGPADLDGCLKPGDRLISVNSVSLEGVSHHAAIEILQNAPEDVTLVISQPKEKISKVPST

T12: DFNB31_1, Q9P202
T12 sequence (Q9P202 135-233, limits assumed, looked up): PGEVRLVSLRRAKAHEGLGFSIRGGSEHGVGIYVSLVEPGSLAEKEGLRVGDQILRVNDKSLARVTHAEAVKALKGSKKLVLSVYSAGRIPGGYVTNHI

B1: ADAM22, Q9P0K1 (peptide)
chain: QSARLWETSI
B2: GHRHR, Q02643 (peptide)
chain: SAAKVLTSMC
B3: RSRC2, Q7L4I2 (peptide)
chain: TSSMRGMDAV

These binders were tested against GORASP2, Q9H8Y8 (assay: holdup assay). Conditions: plain residues with an end cap or a label only (N-terminal biotin on a linker: ado-ado).
Design: key: below the threshold = too weak to quantify, mostly under pKd 3.1 to 4
A pKd of 3.55 was found for B1 in this work.
B2 was tested, and the pKd was “below the threshold”.
For B3, the pKd was “below the threshold”.

Each binder was assayed against T1, RHPN1, Q8TCX5 (assay: holdup assay). Conditions: plain residues with an end cap or a label only (N-terminal biotin on a linker: ado-ado).
Design: key: below the threshold = too weak to quantify, mostly under pKd 3.1 to 4
A pKd of 4.57 was found for B1 in this work.
A pKd of 4.06 was found for B2 in this work.
B3 was tested, and the pKd was “below the threshold”.

Each binder was assayed against TJP1_3, Q07157 (assay: holdup assay). Conditions: plain residues with an end cap or a label only (N-terminal biotin on a linker: ado-ado).
TJP1_3, Q07157, sequence (Q07157 416-512): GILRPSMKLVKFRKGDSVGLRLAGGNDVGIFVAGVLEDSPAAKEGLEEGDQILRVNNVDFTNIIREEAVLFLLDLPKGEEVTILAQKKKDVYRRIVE
Design: key: below the threshold = too weak to quantify, mostly under pKd 3.1 to 4
In the case of B1, the pKd is reported as “below the threshold”.
In the case of B2, the pKd is reported as “below the threshold”.
With B3 the pKd was “below the threshold”.

Each binder was assayed against NOS1, P29475 (assay: holdup assay). Conditions: plain residues with an end cap or a label only (N-terminal biotin on a linker: ado-ado).
NOS1, P29475, sequence (P29475 9-101): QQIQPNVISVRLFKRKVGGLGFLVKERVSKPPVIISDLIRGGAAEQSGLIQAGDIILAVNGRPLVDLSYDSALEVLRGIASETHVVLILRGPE
Design: key: below the threshold = too weak to quantify, mostly under pKd 3.1 to 4
For B1, the pKd was “below the threshold”.
With B2 the pKd was “below the threshold”.
A pKd of 4.38 was found for B3 in this work.

The binders below were run against T2, GRIP1_4, Q9Y3R0 (assay: holdup assay). Conditions: plain residues with an end cap or a label only (N-terminal biotin on a linker: ado-ado).
Design: key: below the threshold = too weak to quantify, mostly under pKd 3.1 to 4
For B1, the pKd was “below the threshold”.
With B2 the pKd was “below the threshold”.
With B3 the pKd was “below the threshold”.

The binders below were run against NHERF4_4, Q86UT5 (assay: holdup assay). Conditions: plain residues with an end cap or a label only (N-terminal biotin on a linker: ado-ado).
NHERF4_4, Q86UT5, sequence (Q86UT5 464-550): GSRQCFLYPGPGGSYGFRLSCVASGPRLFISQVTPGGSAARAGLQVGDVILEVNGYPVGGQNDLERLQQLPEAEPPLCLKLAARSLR
Design: key: below the threshold = too weak to quantify, mostly under pKd 3.1 to 4
A pKd of 3.91 was found for B1 in this work.
For B2, the pKd was “below the threshold”.
A pKd of 3.82 was found for B3 in this work.

Each binder was assayed against T3, DLG3_1, Q92796 (assay: holdup assay). Conditions: plain residues with an end cap or a label only (N-terminal biotin on a linker: ado-ado).
Design: key: below the threshold = too weak to quantify, mostly under pKd 3.1 to 4
For B1, the pKd was “below the threshold”.
With B2 the pKd was “below the threshold”.
In the case of B3, the pKd is reported as “below the threshold”.

These binders were tested against DLG1_3, Q12959 (assay: holdup assay). Conditions: plain residues with an end cap or a label only (N-terminal biotin on a linker: ado-ado).
DLG1_3, Q12959, sequence (Q12959 457-571): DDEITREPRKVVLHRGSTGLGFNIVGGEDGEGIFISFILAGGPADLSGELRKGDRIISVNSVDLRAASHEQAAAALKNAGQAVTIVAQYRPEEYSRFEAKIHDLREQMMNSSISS
Design: key: below the threshold = too weak to quantify, mostly under pKd 3.1 to 4
A pKd of 4.66 was found for B1 in this work.
A pKd of 3.6 was found for B2 in this work.
B3 was tested, and the pKd was “below the threshold”.

These binders were tested against HTRA1, Q92743 (assay: holdup assay). Conditions: plain residues with an end cap or a label only (N-terminal biotin on a linker: ado-ado).
HTRA1, Q92743, sequence (Q92743 360-477): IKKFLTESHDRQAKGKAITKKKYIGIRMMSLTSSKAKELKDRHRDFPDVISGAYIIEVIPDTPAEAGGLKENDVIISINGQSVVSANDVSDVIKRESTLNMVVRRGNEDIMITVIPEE
Design: key: below the threshold = too weak to quantify, mostly under pKd 3.1 to 4
A pKd of 3.92 was found for B1 in this work.
A pKd of 3.55 was found for B2 in this work.
For B3, the pKd was “below the threshold”.

These binders were tested against Inadl_5, Q8NI35 (assay: holdup assay). Conditions: plain residues with an end cap or a label only (N-terminal biotin on a linker: ado-ado).
Inadl_5, Q8NI35, sequence (Q8NI35 673-780): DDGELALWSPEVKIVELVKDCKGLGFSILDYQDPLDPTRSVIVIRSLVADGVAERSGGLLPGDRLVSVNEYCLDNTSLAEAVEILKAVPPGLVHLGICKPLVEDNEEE
Design: key: below the threshold = too weak to quantify, mostly under pKd 3.1 to 4
For B1, the pKd was “below the threshold”.
B2 was tested, and the pKd was “below the threshold”.
With B3 the pKd was “below the threshold”.

Each binder was assayed against LAP2, Q96RT1 (assay: holdup assay). Conditions: plain residues with an end cap or a label only (N-terminal biotin on a linker: ado-ado).
LAP2, Q96RT1, sequence (Q96RT1 other isoform, or with tags, fused parts or gaps): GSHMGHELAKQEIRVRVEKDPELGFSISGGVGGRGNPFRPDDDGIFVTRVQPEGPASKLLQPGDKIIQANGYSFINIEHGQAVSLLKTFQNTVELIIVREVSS
Design: key: below the threshold = too weak to quantify, mostly under pKd 3.1 to 4
A pKd of 3.96 was found for B1 in this work.
B2 was tested, and the pKd was “below the threshold”.
For B3, the pKd was “below the threshold”.

What follows are binders tested against TJP2_1, Q9UDY2 (assay: holdup assay). Conditions: plain residues with an end cap or a label only (N-terminal biotin on a linker: ado-ado).
TJP2_1, Q9UDY2, sequence (Q9UDY2 24-128): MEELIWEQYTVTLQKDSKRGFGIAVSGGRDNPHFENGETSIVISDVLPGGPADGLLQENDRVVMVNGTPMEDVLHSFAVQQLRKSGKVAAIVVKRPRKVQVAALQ
Design: key: below the threshold = too weak to quantify, mostly under pKd 3.1 to 4
In the case of B1, the pKd is reported as “below the threshold”.
A pKd of 3.6 was found for B2 in this work.
B3 was tested, and the pKd was “below the threshold”.

What follows are binders tested against Inadl_9, Q8NI35 (assay: holdup assay). Conditions: plain residues with an end cap or a label only (N-terminal biotin on a linker: ado-ado).
Inadl_9, Q8NI35, sequence (Q8NI35 1530-1615): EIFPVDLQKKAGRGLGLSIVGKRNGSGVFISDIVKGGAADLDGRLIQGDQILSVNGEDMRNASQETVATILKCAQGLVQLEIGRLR
Design: key: below the threshold = too weak to quantify, mostly under pKd 3.1 to 4
B1 was tested, and the pKd was “below the threshold”.
B2 was tested, and the pKd was “below the threshold”.
In the case of B3, the pKd is reported as “below the threshold”.

Each binder was assayed against Inadl_10, Q8NI35 (assay: holdup assay). Conditions: plain residues with an end cap or a label only (N-terminal biotin on a linker: ado-ado).
Inadl_10, Q8NI35, sequence (Q8NI35 1673-1763): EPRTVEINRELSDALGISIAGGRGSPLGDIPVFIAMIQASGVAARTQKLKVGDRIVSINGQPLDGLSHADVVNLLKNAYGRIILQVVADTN
Design: key: below the threshold = too weak to quantify, mostly under pKd 3.1 to 4
A pKd of 3.8 was found for B1 in this work.
B2 was tested, and the pKd was “below the threshold”.
With B3 the pKd was “below the threshold”.

What follows are binders tested against T4, GRIP1_2, Q9Y3R0 (assay: holdup assay). Conditions: plain residues with an end cap or a label only (N-terminal biotin on a linker: ado-ado).
Design: key: below the threshold = too weak to quantify, mostly under pKd 3.1 to 4
For B1, the pKd was “below the threshold”.
In the case of B2, the pKd is reported as “below the threshold”.
With B3 the pKd was “below the threshold”.

What follows are binders tested against T5, MPDZ_10, O75970 (assay: holdup assay). Conditions: plain residues with an end cap or a label only (N-terminal biotin on a linker: ado-ado).
Design: key: below the threshold = too weak to quantify, mostly under pKd 3.1 to 4
For B1, the pKd was “below the threshold”.
A pKd of 3.49 was found for B2 in this work.
For B3, the pKd was “below the threshold”.

What follows are binders tested against DLG4_1, P78352 (assay: holdup assay). Conditions: plain residues with an end cap or a label only (N-terminal biotin on a linker: ado-ado).
DLG4_1, P78352, sequence (P78352 62-152): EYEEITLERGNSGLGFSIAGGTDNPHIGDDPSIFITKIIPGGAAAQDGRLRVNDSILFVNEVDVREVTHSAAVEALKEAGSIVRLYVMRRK
Design: key: below the threshold = too weak to quantify, mostly under pKd 3.1 to 4
A pKd of 3.92 was found for B1 in this work.
For B2, the pKd was “below the threshold”.
A pKd of 3.49 was found for B3 in this work.

What follows are binders tested against T6, LIN7B, Q9HAP6 (assay: holdup assay). Conditions: plain residues with an end cap or a label only (N-terminal biotin on a linker: ado-ado).
Design: key: below the threshold = too weak to quantify, mostly under pKd 3.1 to 4
A pKd of 4.35 was found for B1 in this work.
A pKd of 3.7 was found for B2 in this work.
In the case of B3, the pKd is reported as “below the threshold”.

What follows are binders tested against IL16_1, Q14005 (assay: holdup assay). Conditions: plain residues with an end cap or a label only (N-terminal biotin on a linker: ado-ado).
IL16_1, Q14005, sequence (Q14005 210-306): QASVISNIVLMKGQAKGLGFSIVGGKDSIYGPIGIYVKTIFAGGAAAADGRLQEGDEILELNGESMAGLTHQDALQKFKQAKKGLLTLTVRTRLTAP
Design: key: below the threshold = too weak to quantify, mostly under pKd 3.1 to 4
A pKd of 3.68 was found for B1 in this work.
B2 was tested, and the pKd was “below the threshold”.
B3 was tested, and the pKd was “below the threshold”.

What follows are binders tested against T7, DLG3_2, Q92796 (assay: holdup assay). Conditions: plain residues with an end cap or a label only (N-terminal biotin on a linker: ado-ado).
Design: key: below the threshold = too weak to quantify, mostly under pKd 3.1 to 4
A pKd of 4.32 was found for B1 in this work.
A pKd of 4.12 was found for B2 in this work.
For B3, the pKd was “below the threshold”.

Each binder was assayed against T8, SYNJ2BP, P57105 (assay: holdup assay). Conditions: plain residues with an end cap or a label only (N-terminal biotin on a linker: ado-ado).
Design: key: below the threshold = too weak to quantify, mostly under pKd 3.1 to 4
A pKd of 5.2 was found for B1 in this work.
A pKd of 3.59 was found for B2 in this work.
For B3, the pKd was “below the threshold”.

The binders below were run against T9, PARD3B_1, Q8TEW8 (assay: holdup assay). Conditions: plain residues with an end cap or a label only (N-terminal biotin on a linker: ado-ado).
Design: key: below the threshold = too weak to quantify, mostly under pKd 3.1 to 4
A pKd of 3.78 was found for B1 in this work.
In the case of B2, the pKd is reported as “below the threshold”.
With B3 the pKd was “below the threshold”.

Each binder was assayed against T10, HTRA3, P83110 (assay: holdup assay). Conditions: plain residues with an end cap or a label only (N-terminal biotin on a linker: ado-ado).
Design: key: below the threshold = too weak to quantify, mostly under pKd 3.1 to 4
In the case of B1, the pKd is reported as “below the threshold”.
A pKd of 4.24 was found for B2 in this work.
In the case of B3, the pKd is reported as “below the threshold”.

What follows are binders tested against T11, PTPN13_1, Q12923 (assay: holdup assay). Conditions: plain residues with an end cap or a label only (N-terminal biotin on a linker: ado-ado).
Design: key: below the threshold = too weak to quantify, mostly under pKd 3.1 to 4
For B1, the pKd was “below the threshold”.
In the case of B2, the pKd is reported as “below the threshold”.
With B3 the pKd was “below the threshold”.

These binders were tested against T12, DFNB31_1, Q9P202 (assay: holdup assay). Conditions: plain residues with an end cap or a label only (N-terminal biotin on a linker: ado-ado).
Design: key: below the threshold = too weak to quantify, mostly under pKd 3.1 to 4
A pKd of 5.41 was found for B1 in this work.
With B2 the pKd was “below the threshold”.
In the case of B3, the pKd is reported as “below the threshold”.
